Data published in patent EP4667489A1.

Target: human PDL1 expressed on 293T-PDL1 cells (human) (UniProt Q9NZQ7)
Experiment: flow cytometry on 293T-PDL1 cells

human PDL1 expressed on 293T-PDL1 cells (human), sequence (Q9NZQ7 19-290): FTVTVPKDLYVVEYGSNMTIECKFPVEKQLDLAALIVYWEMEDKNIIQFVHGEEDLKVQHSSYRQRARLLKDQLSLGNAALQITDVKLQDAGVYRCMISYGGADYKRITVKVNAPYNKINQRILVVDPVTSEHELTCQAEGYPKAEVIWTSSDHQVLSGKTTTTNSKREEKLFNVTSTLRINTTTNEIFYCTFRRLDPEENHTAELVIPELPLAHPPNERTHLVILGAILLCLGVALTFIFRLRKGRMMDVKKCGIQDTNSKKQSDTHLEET

- MFI.Max: 44.1
Substance: IgG1 irrelevant antibody
